Consider six variants from IntAct's records for PubMed 16438971.

First the molecules themselves.
B1: Protein …ON-INDUCED 19 (Arabidopsis thaliana (Mouse-ear cress)), Q39083 (parent)
chain: MDADSKRFLATLRSRSEMLMGFEEIDGDDDFQEEFACPFCAESYDIIGLCCHIDDEHTLESKNAVCPVCSLKVGVDIVAHITLHHGSLFKLQRKRKSRKSGTNSTLSLLRKELREGDLQRLLGFTSRNGSVASSVTPDPLLSSFISPTRSQSSPAPRQTKNVSEDKQIERKRQVFISPVSLKDREERRHKSEFVQRLLSSAIFDEV
partner: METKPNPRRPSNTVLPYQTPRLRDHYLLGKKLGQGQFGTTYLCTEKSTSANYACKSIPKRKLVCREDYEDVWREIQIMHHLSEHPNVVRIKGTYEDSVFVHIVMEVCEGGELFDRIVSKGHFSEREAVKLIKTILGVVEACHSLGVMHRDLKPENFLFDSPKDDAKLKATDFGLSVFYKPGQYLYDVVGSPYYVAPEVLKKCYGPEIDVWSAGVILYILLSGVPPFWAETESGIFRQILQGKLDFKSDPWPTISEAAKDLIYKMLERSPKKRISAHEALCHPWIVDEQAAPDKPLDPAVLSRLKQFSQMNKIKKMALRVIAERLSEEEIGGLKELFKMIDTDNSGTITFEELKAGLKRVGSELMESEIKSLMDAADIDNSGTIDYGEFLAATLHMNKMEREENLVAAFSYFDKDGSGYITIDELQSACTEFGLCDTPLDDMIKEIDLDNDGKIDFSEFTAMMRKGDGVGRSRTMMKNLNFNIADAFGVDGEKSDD
B2: Calcium-dependent protein kinase 11 (Arabidopsis thaliana (Mouse-ear cress)), Q39016 (parent)
chain: B1 partner
partner: B1 chain

In one experiment the parent is B1. To be noted: with cdpkb_arath CPK11, Q39016.
Consider MDADSKRFLATLRSRSEMLMGFEEIDGDDDFQEEFACPFCAESYDIIGLCCHIDDEHTLESKNAVCPVCSLKVGVDIVAHITLHHGSLFKLQRKRKSRKSGTNSALSLLRKELREGDLQRLLGFTSRNGSVASSVTPDPLLSSFISPTRSQSSPAPRQTKNVSEDKQIERKRQVFISPVSLKDREERRHKSEFVQRLLSSAIFDEV [T105A], for which the “effect of a mutation on the interaction” value is listed as “decreasing interaction”.
Still for that read-out and setting: then MDADSKRFLATLRSRSEMLMGFEEIDGDDDFQEEFACPFCAESYDIIGLCCHIDDEHTLESKNAVCPVCSLKVGVDIVAHITLHHGSLFKLQRKRKSRKSGTNSTLALLRKELREGDLQRLLGFTSRNGSVASSVTPDPLLSSFISPTRSQSSPAPRQTKNVSEDKQIERKRQVFISPVSLKDREERRHKSEFVQRLLSSAIFDEV [S107A], with “decreasing interaction”.

The variants in another experiment derive from B2. The note with it: with di191_arath DI19-1, Q39083.
METKPNPRRPSNTVLPYQTPRLRDHYLLGKKLGQGQFGTTYLCTEKSTSANYACKSIPKRKLVCREDYEDVWREIQIMHHLSEHPNVVRIKGTYEDSVFVHIVMEVCEGGELFDRIVSKGHFSEREAVKLIKTILGVVEACHSLGVMHRALKPENFLFDSPKDDAKLKATDFGLSVFYKPGQYLYDVVGSPYYVAPEVLKKCYGPEIDVWSAGVILYILLSGVPPFWAETESGIFRQILQGKLDFKSDPWPTISEAAKDLIYKMLERSPKKRISAHEALCHPWIVDEQAAPDKPLDPAVLSRLKQFSQMNKIKKMALRVIAERLSEEEIGGLKELFKMIDTDNSGTITFEELKAGLKRVGSELMESEIKSLMDAADIDNSGTIDYGEFLAATLHMNKMEREENLVAAFSYFDKDGSGYITIDELQSACTEFGLCDTPLDDMIKEIDLDNDGKIDFSEFTAMMRKGDGVGRSRTMMKNLNFNIADAFGVDGEKSDD [D150A]: the “effect of a mutation on the interaction” value is on record as “increasing interaction”.

The variants in a further experiment derive from B2. The note with it: with di191_arath DI19-1, Q39083. The source holds these as a separate data set.
With METKPNPRRPSNTVLPYQTPRLRDHYLLGKKLGQGQFGTTYLCTEKSTSANYACKSIPKRKLVCREDYEDVWREIQIMHHLSEHPNVVRIKGTYEDSVFVHIVMEVCEGGELFDRIVSKGHFSEREAVKLIKTILGVVEACHSLGVMHRALKPENFLFDSPKDDAKLKATDFGLSVFYKPGQYLYDVVGSPYYVAPEVLKKCYGPEIDVWSAGVILYILLSGVPPFWAETESGIFRQILQGKLDFKSDPWPTISEAAKDLIYKMLERSPKKRISAHEALCHPWIVDEQAAPDKPLDPAVLSRLKQFSQMNKIKKMALRVIAERLSEEEIGGLKELFKMIDTDNSGTITFEELKAGLKRVGSELMESEIKSLMDAADIDNSGTIDYGEFLAATLHMNKMEREENLVAAFSYFDKDGSGYITIDELQSACTEFGLCDTPLDDMIKEIDLDNDGKIDFSEFTAMMRKGDGVGRSRTMMKNLNFNIADAFGVDGEKSDD [D150A], the “effect of a mutation on the interaction” value was “disrupting interaction”.

Variants of B2 are the subject of a further experiment. The note with it: with di191_arath DI19-1, Q39083. The source holds these as a separate data set.
Take METKPNPRRPSNTVLPYQTPRLRDHYLLGKKLGQGQFGTTYLCTEKSTSANYACKSIPKRKLVCREDYEDVWREIQIMHHLSEHPNVVRIKGTYEDSVFVHIVMEVCEGGELFDRIVSKGHFSEREAVKLIKTILGVVEACHSLGVMHRDLKPENFLFDSPKDDAKLKATDFGLSVFYKPGQYLYDVVGSPYYVAPEVLKKCYGPEIDVWSAGVILYILLSGVPPFWAETESGIFRQILQGKLDFKSDPWPTISEAAKDLIYKMLERSPKKRISAHEALCHPWIVDEQAAPDKPLDPAVLSRLKQASQMNKIKKMALRVIAERLSEEEIGGLKELFKMIDTDNSGTITFEELKAGLKRVGSELMESEIKSLMDAADIDNSGTIDYGEFLAATLHMNKMEREENLVAAFSYFDKDGSGYITIDELQSACTEFGLCDTPLDDMIKEIDLDNDGKIDFSEFTAMMRKGDGVGRSRTMMKNLNFNIADAFGVDGEKSDD [F306A]: the “effect of a mutation on the interaction” value was “increasing interaction”.

A further experiment covers variants of B2. To be noted: with di191_arath DI19-1, Q39083. The source holds these as a separate data set.
Turning to METKPNPRRPSNTVLPYQTPRLRDHYLLGKKLGQGQFGTTYLCTEKSTSANYACKSIPKRKLVCREDYEDVWREIQIMHHLSEHPNVVRIKGTYEDSVFVHIVMEVCEGGELFDRIVSKGHFSEREAVKLIKTILGVVEACHSLGVMHRDLKPENFLFDSPKDDAKLKATAFGLSVFYKPGQYLYDVVGSPYYVAPEVLKKCYGPEIDVWSAGVILYILLSGVPPFWAETESGIFRQILQGKLDFKSDPWPTISEAAKDLIYKMLERSPKKRISAHEALCHPWIVDEQAAPDKPLDPAVLSRLKQASQMNKIKKMALRVIAERLSEEEIGGLKELFKMIDTDNSGTITFEELKAGLKRVGSELMESEIKSLMDAADIDNSGTIDYGEFLAATLHMNKMEREENLVAAFSYFDKDGSGYITIDELQSACTEFGLCDTPLDDMIKEIDLDNDGKIDFSEFTAMMRKGDGVGRSRTMMKNLNFNIADAFGVDGEKSDD [D171A;F306A], the “effect of a mutation on the interaction” value is on record as “increasing interaction”.
On to METKPNPRRPSNTVLPYQTPRLRDHYLLGKKLGQGQFGTTYLCTEKSTSANYACKSIPKRKLVCREDYEDVWREIQIMHHLSEHPNVVRIKGTYEDSVFVHIVMEVCEGGELFDRIVSKGHFSEREAVKLIKTILGVVEACHSLGVMHRALKPENFLFDSPKDDAKLKATDFGLSVFYKPGQYLYDVVGSPYYVAPEVLKKCYGPEIDVWSAGVILYILLSGVPPFWAETESGIFRQILQGKLDFKSDPWPTISEAAKDLIYKMLERSPKKRISAHEALCHPWIVDEQAAPDKPLDPAVLSRLKQASQMNKIKKMALRVIAERLSEEEIGGLKELFKMIDTDNSGTITFEELKAGLKRVGSELMESEIKSLMDAADIDNSGTIDYGEFLAATLHMNKMEREENLVAAFSYFDKDGSGYITIDELQSACTEFGLCDTPLDDMIKEIDLDNDGKIDFSEFTAMMRKGDGVGRSRTMMKNLNFNIADAFGVDGEKSDD [D150A;F306A], for which the “effect of a mutation on the interaction” value is recorded as “increasing interaction”.
